Experimental data as given in article PMC9536601.

Assays:
[1] = molecular target: chimeric hexon of the Ad5 vector Ad5:H1.1 (Ad5 hexon with residues 112-593 from Ad1 hexon, on virions) (human adenovirus 5 | human adenovirus 1) (UniProt P04133); assay: SPR; Biacore T200; about 300 to 5,000 RU of Ad virions immobilised on a CM5 chip, coagulation factors flowed over at four concentrations, 50 uL/min; running buffer 10 mM HEPES, 150 mM NaCl, 1 mM CaCl2, 0.5 mM MgCl2, 0.1% BSA, 0.05% polysorbate 20, pH 7.4; regeneration with 3 mM EDTA; global fit to a 1:1 kinetic interaction model, double referencing
[2] = molecular target: hexon of the Ad5 vector Ad5.5 (on virions) (human adenovirus 5) (UniProt P04133); assay: as above
[3] = molecular target: hexon of the Ad5 vector Ad5.4 (HVR7 mutant, on virions) (human adenovirus 5) (UniProt P04133); assay: as above
[4] = molecular target: chimeric hexon of the Ad5 vector Ad5:H6.1 (Ad5 hexon with residues 112-593 from Ad6 hexon, on virions) (human adenovirus 5 | human adenovirus 6) (UniProt P04133); assay: as above
[5] = molecular target: chimeric hexon of the Ad5 vector Ad5:H6.3 (Ad6 hexon section with HVR7 mutations, on virions) (human adenovirus 5 | human adenovirus 6) (UniProt P04133); assay: as above
[6] = molecular target: chimeric hexon of the Ad5 vector Ad5:H6.2 (Ad6 hexon section with HVR7 mutations, on virions) (human adenovirus 5 | human adenovirus 6) (UniProt P04133); assay: as above
[7] = molecular target: chimeric hexon of the Ad5 vector Ad5:H6.4 (Ad6 hexon section with HVR7 mutations, on virions) (human adenovirus 5 | human adenovirus 6) (UniProt P04133); assay: as above
[8] = molecular target: chimeric hexon of Ad5:H6.3 (Ad5 vector, hexon residues 112-593 from Ad6 hexon, HVR7 IGNTETF), on the virion (human adenovirus type 5 | human adenovirus type 6) (UniProt P04133); assay: SPR; Biacore T200; about 300 to 5,000 RU of Ad virions immobilised on a CM5 chip, coagulation factors flowed over at four concentrations, 50 uL/min; 10 mM HEPES, 150 mM NaCl, 1 mM CaCl2, 0.5 mM MgCl2, 0.1% BSA, 0.05% polysorbate 20, pH 7.4; global fit to a 1:1 kinetic interaction model, double referencing
[9] = molecular target: chimeric hexon of Ad5:H6.4 (Ad5 vector, hexon residues 112-593 from Ad6 hexon, HVR7 IGITDAF), on the virion (human adenovirus type 5 | human adenovirus type 6) (UniProt P04133); assay: as above
[10] = molecular target: chimeric hexon of Ad5:H6.2 (Ad5 vector, hexon residues 112-593 from Ad6 hexon, HVR7 IGNTDTF), on the virion (human adenovirus type 5 | human adenovirus type 6) (UniProt P04133); assay: as above

| Substance | Kd [1] [µM] | koff [1] [s⁻¹] | kon [1] [M⁻¹ s⁻¹] | Kd [2] [µM] | koff [2] [s⁻¹] | kon [2] [M⁻¹ s⁻¹] | Kd [3] [µM] | koff [3] [s⁻¹] | kon [3] [M⁻¹ s⁻¹] | Kd [4] [µM] | koff [4] [s⁻¹] | kon [4] [M⁻¹ s⁻¹] | Kd [5] [µM] | koff [5] [s⁻¹] | kon [5] [M⁻¹ s⁻¹] | Kd [6] [µM] | koff [6] [s⁻¹] | kon [6] [M⁻¹ s⁻¹] | Kd [7] [µM] | koff [7] [s⁻¹] | other results |
| --- | --- | --- | --- | --- | --- | --- | --- | --- | --- | --- | --- | --- | --- | --- | --- | --- | --- | --- | --- | --- | --- |
| bovine coagulation factor X (from UniProt P00743 41-492) (natural protein) | 0.22 | 0.0512 | 236000 | 0.438 | 0.169 | 387000 | 0.54 | 0.147 | 274000 | 0.097 | 0.0132 | 135000 |  |  |  |  |  |  |  |  |  |
| human coagulation factor X (from UniProt P00742 41-488) (natural protein) | 0.3 | 0.077 | 253000 | 0.0052 | 0.000661 | 126000 | 0.01 | 0.000338 | 33900 | 0.043 | 0.00914 | 214000 |  |  |  |  |  |  |  |  |  |
| mouse coagulation factor X (from UniProt O88947 41-481) (natural protein) | 0.00082 | 0.000372 | 454000 | 0.0025 | 0.00104 | 416000 | 0.0019 | 0.000479 | 248000 | 0.00031 | 3.78e-05 | 122000 | 1.2 | 0.26 | 214000 | 0.681 | 0.121 | 178000 | 0.095 | 0.0169 | kon [7]: 178000 M⁻¹ s⁻¹; Kd [8]: 1.2 µM; Kd [9]: 0.095 µM; Kd [10]: 0.681 µM |
| mouse prothrombin (coagulation factor II) (from UniProt P19221 44-618) (natural protein) | 0.016 | 0.00118 | 71600 | 0.216 | 0.0676 | 314000 | 36 | 0.281 | 7770 | 0.0086 | 0.000535 | 62200 | 1.6 | 0.0304 | 19700 | 0.56 | 0.012 | 21300 | 32 | 0.563 | kon [7]: 17800 M⁻¹ s⁻¹; Kd [8]: 1.6 µM; Kd [9]: 32 µM; Kd [10]: 0.56 µM |
